Results taken from paper PMC4686813.

Molecular target: Sec61β (dog (endogenous in canine pancreatic microsomes)) (UniProt P60467)
Test: cross-linking; BMH on microsomes stripped of ribosomes with EDTA and high salt (EKRM); western blot with anti-Sec62; also with purified canine ribosomes added back

UniProt P60467, sequence (P60467 whole entry): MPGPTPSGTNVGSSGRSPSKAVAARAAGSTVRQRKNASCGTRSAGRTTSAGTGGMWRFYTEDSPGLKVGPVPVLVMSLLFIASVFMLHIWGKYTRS

Sec62 (from UniProt P82009 1-39) (natural protein)
percent of Sec62 cross-linked to Sec61β: > 50%
